Values of other authors, collected in publication PMC10560217.
pKd: −log10 of the molar value. Like-named read-outs stand apart in the source and are kept apart here. Blank lines part the entries; values can stand above or below the substance they belong to.

Tests used:
[1] = biological target: dmIR (Drosophila melanogaster) (UniProt P09208)
[2] = biological target: dmIR (Drosophila melanogaster) (UniProt P09208); remark: listed apart in the source
[3] = biological target: dmIR (Drosophila melanogaster) (UniProt P09208); remark: listed apart in the source
[4] = biological target: hIR ECD (Homo sapiens) (UniProt P06213)

Sequence of dmIR (Drosophila melanogaster) (P09208 44-1310): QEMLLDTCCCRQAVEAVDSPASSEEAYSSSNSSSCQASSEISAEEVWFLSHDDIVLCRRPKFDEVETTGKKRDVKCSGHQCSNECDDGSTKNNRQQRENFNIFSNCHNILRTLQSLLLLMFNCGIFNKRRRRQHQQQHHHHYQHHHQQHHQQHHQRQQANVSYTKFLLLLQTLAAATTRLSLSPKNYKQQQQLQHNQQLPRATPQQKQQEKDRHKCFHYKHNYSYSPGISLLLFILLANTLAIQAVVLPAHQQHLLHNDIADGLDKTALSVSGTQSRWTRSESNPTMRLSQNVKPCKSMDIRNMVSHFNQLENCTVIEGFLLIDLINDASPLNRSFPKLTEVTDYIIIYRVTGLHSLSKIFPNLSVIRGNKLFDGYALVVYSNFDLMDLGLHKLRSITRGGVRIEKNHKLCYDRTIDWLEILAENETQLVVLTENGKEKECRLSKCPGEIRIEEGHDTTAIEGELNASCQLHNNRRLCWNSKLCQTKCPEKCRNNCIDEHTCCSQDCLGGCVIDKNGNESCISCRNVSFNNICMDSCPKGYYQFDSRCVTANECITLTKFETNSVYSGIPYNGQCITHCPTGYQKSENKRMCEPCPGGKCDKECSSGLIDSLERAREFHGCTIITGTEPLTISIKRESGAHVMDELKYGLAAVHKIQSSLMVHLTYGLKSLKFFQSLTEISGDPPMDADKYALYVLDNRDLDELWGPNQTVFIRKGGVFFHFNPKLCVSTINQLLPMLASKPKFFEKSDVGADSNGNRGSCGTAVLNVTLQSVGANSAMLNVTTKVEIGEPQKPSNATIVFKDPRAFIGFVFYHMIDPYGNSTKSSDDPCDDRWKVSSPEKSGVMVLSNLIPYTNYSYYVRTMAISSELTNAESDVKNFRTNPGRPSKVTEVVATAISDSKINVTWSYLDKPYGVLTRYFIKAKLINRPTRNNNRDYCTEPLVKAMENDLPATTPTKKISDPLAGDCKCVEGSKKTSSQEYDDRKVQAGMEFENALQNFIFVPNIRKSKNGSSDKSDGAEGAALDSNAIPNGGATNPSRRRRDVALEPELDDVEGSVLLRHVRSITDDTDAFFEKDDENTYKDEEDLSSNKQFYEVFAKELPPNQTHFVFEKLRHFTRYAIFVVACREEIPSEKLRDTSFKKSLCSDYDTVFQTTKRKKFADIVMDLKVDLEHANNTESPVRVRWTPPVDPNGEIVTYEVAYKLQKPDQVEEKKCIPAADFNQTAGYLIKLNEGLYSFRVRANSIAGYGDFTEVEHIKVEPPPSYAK
Sequence of DILP5 C4 (Q7KUD5 23-50): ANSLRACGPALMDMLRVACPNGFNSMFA
Sequence of DILP5 C4 (Q7KUD5 87-108): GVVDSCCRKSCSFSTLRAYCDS
Sequence of DILP5 DB (Q7KUD5 84-108): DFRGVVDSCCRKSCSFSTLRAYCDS
Sequence of insulin (P01308 90-110): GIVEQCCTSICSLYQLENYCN

pKd [1]: 9.12
Substance: DILP5 C4 (from UniProt Q7KUD5)

pKd [2]: 9.46
Substance: DILP5 DB (from UniProt Q7KUD5)

pKd [3]: 5.23
Substance: hIGF-1 (from UniProt P05019)

pKd [4]: 7.52
Substance: insulin (from UniProt P01308)
